Measurements as given in PMC5388898 (Biomacromolecules, 2017).

Molecular target: epidermal growth factor receptor (EGFR) on A431 cells (Homo sapiens, endogenous on A431 cells, UniProt P00533)
Assay: flow cytometry on cells

B1: Fc5^FL-ELP^DB (VHH)
VHH: EVQLQASGGGLVQAGGSLRLSCAASGFKITHYTMGWFRQAPGKEREFVSRITWGGDNTFYSNSVKGRFTISRDNAKNTVYLQMNSLKPEDTADYYCAAGSTSTATPLRVDYWGKGTQVTVSS
B1: no binding (tested: 1 μM).
